Target: the molecule itself
Test: AUC; sedimentation velocity, 60,000 rpm, 20 °C; CD20 at 0.5 mg/ml in 20 mM Tris pH 8.0, 150 mM NaCl, CALX-173-GK; also at 0.044 mg/ml after dilution with CALX-173-GK or DDM (0.05%) buffer, where the distribution shifts in favour of the monomer

B1: CD20 (full length, wild type, C-terminal His6 tag) (natural protein, human, UniProt P11836 1-297, looked up)
chain: MTTPRNSVNGTFPAEPMKGPIAMQSGPKPLFRRMSSLVGPTQSFFMRESKTLGAVQIMNGLFHIALGGLLMIPAGIYAPICVTVWYPLWGGIMYIISGSLLAATEKNSRKCLVKGKMIMNSLSLFAAISGMILSIMDILNIKISHFLKMESLNFIRAHTPYINIYNCEPANPSEKNSPSTQYCYSIQSLFLGILSVMLIFAFFQELVIAGIVENEWKRTCSRPKSNIVLLSAEEKKEQTIEIKEEVVGLTETSSQPKNEEDIEIIPIQEEEEEETETNFPEPPQDQESSPIENDSSP
notes: CD20, human, UniProt P11836, full length and wild type, from plasmid pETR17026; Integral membrane protein held in calixarene detergent micelles (CALX-173-GK, or DDM after dilution); also called purified native CD20; recombinant native CD20; source: gel filtration in CALX-173-GK; not shown: His6, C-terminal, kept
  binding result: binds
